In the experiment the target is β-galactosidase (β-gal, Sigma) (E. coli) [β-galactosidase: P00722]. Description: panning of mixtures with wt scFv13-SecM17 ARM complexes in 10:1, 100:1, 1,000:1 or 10,000:1 excess on immobilized β-gal; 10 clones sequenced per mixture.
β-galactosidase (β-gal, Sigma) (E. coli) [β-galactosidase: P00722], sequence (P00722 2-1024 limits assumed): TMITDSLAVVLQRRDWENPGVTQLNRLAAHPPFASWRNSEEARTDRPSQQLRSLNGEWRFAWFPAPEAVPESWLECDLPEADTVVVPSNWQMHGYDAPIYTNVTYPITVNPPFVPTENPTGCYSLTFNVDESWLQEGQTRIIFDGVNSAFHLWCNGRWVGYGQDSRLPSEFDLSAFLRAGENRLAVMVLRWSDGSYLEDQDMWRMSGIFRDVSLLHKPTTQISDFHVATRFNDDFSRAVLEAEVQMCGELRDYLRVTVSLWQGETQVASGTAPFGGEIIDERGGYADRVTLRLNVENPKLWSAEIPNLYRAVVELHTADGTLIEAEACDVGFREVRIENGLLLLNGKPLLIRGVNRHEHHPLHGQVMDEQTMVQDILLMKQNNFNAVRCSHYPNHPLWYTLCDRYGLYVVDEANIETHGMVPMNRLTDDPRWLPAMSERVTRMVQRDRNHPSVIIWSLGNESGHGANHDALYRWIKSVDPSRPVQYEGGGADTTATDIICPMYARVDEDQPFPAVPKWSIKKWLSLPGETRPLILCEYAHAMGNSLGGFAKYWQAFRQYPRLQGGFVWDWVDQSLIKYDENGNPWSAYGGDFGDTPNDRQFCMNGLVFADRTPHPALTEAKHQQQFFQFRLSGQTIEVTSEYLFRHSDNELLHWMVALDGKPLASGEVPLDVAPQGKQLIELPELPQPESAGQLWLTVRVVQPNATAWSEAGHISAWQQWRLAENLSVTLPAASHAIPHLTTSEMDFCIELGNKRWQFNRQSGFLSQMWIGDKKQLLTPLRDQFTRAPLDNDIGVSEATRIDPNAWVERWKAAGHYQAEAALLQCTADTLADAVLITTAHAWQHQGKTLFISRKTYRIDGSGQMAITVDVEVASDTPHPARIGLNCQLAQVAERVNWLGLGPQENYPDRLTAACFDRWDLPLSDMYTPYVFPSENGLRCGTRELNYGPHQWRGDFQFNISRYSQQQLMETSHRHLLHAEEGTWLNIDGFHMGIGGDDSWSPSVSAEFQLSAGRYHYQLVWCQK

For scFv13-R4-SecM17 fusion, the share of sequenced clones recovered after panning stood at 100%.

The values are drawn from patent US20110008774A1.
